Publication PMC12797002, “Hydrophobic residues in the α‐synuclein NAC domain drive seed‐competent fibril formation and are targeted by peptide inhibitors” (The Febs Journal, 2025)
Entries after “also recorded” stand apart in the source; their conditions may differ.

Tests used:
[1] = biological target: T1, monomeric αSyn (Homo sapiens, UniProt P37840, A53T); experiment: In vitro seeding assay with preformed fibrils (ThT, dot blot, Coomassie gel); format: biochemical; conditions: for seeding of αSyn aggregation (effect on lag time) in words: 100 μM αSyn + 25 μM preformed fibrils, ThT; for αSyn dimerization (dimer-to-monomer band ratio, Coomassie gel): insoluble fractions of seeded αSyn, n = 2; for Key observations: seeding of αSyn aggregation: summary table
T1 construct: made in house
Procedure: For the in vitro seeding assay, αSyn (100 μM), NAC35 (100 μM), NAC16 (200 μM), and NAC11 (200 μM) peptides were aggregated without ThT for 72–96 h. Fibril formation was confirmed by mixing 10 μL of the aggregated sample with 15 μM ThT and measuring fluorescence using an EnSpire Multimode Plate Reader (Revvity). Aggregates were then centrifuged to separate insoluble fractions as described above.
αSyn (100 μM) was incubated with 25 μM insoluble fractions (preformed fibrils) of αSyn, NAC35, NAC16, and NAC11 in a 100–150 μL volume per well of a 96‐well ViewPlate in the presence of 50 μM ThT. The aggregation kinetics were monitored on an EnSpire Multimode Plate Reader (Revvity) at 37 °C with a constant agitation of 1000 rpm. ThT fluorescence was recorded every 5–10 min for over 60–65 h. After aggregation, the contents of each well were collected, and insoluble fractions were isolated by centrifugation. These fractions were subsequently analyzed using dot blot analysis and Coomassie gel staining.
The samples were mixed with 2× Laemmli buffer [62.5 mM Tris/HCl (pH 6.8), 25% (w/v) glycerol, 2% SDS, and 0.01% Bromophenol Blue, supplemented with 5% (v/v) 2‐mercaptoethanol] and boiled at 95 °C for 5 min. The samples were then subjected to electrophoresis using Mini‐PROTEAN TGX 4–20% Precast gels (Bio‐Rad, Hercules, CA, USA, Cat. # 4561095) in Tris/glycine/SDS running buffer (Bio‐Rad). Gels were fixed in 50% methanol (v/v) and 10% acetic acid (v/v) for 1 h, stained with Coomassie Brilliant Blue R‐250 Staining Solution (Bio‐Rad, Cat. # 1610436EDU) for 12 h at 4 °C with gentle agitation, and destained in deionized water. Gel images were acquired using a ChemiDoc MP imaging system (Bio‐Rad), and densitometry was performed using the IMAGEJ software (RRID: SCR_003070; Bethesda, MD, USA).
Five μL of the sample (2.5 μL first, allowed to dry completely, then another 2.5 μL) was spotted onto a nitrocellulose membrane (Bio‐Rad, Cat. # 1620147), pre‐divided into uniform circular grids, and allowed to dry for 10 min at room temperature. The membrane was blocked for 1 h with 5% bovine serum albumin (BSA) in 1× Tris‐buffered saline with 0.05% Tween® 20 (TBST), followed by 3× washes with TBST. The membrane was then incubated for 1 h with anti‐α‐Synuclein (D37A6) rabbit monoclonal antibody (Cell Signaling Technology, Inc., Danvers, MA, USA, Cat. # 4179, RRID: AB_1904156), which recognizes an epitope surrounding Glu105 in the C‐terminal region of αSyn, and was used at a 1 : 2000 dilution in 5% BSA/TBST. After 3× washes with TBST, the blot was incubated with Alexa Fluor™ 647 Goat anti‐Rabbit IgG (Thermo Fisher Scientific; Cat. # A‐21245) at a 1 : 5000 dilution for 1 h. The blot was imaged using the ChemiDoc MP imaging system (Bio‐Rad), and densitometry was performed using IMAGEJ.

[2] = UV-Vis spectrophotometric analysis of soluble and insoluble fractions; format: physicochemical; conditions: 100 μM peptide, 48 h incubation without ThT, 65 000 g 1 h, 1× PBS pH 7.2, spectra 400–600 nm; means of 3 replicates
Procedure: To fractionate aggregated samples (recombinant αSyn or NAC peptides), 20% of the aggregation mixture was set aside as the ‘total fraction’. The remaining sample was centrifuged at room temperature at 65 000 g for 1 h. The supernatant was collected as the ‘soluble fraction’ and transferred to a fresh tube. The pellet was resuspended in 80 μL of 1× PBS (pH 7.2) and centrifuged at 65 000 g for 1 h. After removing the supernatant, the pellet was resuspended in 8 μL of 1× PBS (pH 7.2), yielding a 10× concentrated ‘insoluble fraction’.
NAC peptides (100 μM) were incubated without ThT for 48 h to allow aggregation. The resulting mixtures were centrifuged at 65 000 g for 1 h to separate the soluble and insoluble fractions, as outlined above. Insoluble fractions were resuspended in an equal volume of 1× PBS (pH 7.2) as the soluble fractions. UV–Vis absorption spectra were recorded from 400 to 600 nm using an EnSpire Multimode Plate Reader (Revvity) with a resolution of 10 nm.

[3] = ANS assay of NAC peptide aggregation at different pH; format: physicochemical; conditions: ANS fluorescence, 100 μM peptide; for lag time at acidic pH compared with neutral pH / lag time at basic pH compared with neutral pH: 40 μM ANS, 1× PBS, 1000 rpm, n = 3; for lag time at acidic pH compared with neutral pH: acidic (pH 4.5 in legend, pH 4.2 in method) vs pH 7.2, 37 °C; for lag time at basic pH compared with neutral pH: pH 8.0 vs pH 7.2, 37 °C; for aggregation on altering pH: acidic, neutral (pH 7.2) and basic (pH 8.0) PBS, 37 °C
Procedure: A 40‐μL reaction mixture was prepared on ice containing 100 μM NAC peptides and 40 μM 8‐anilino‐1‐naphthalenesulfonic acid (ANS; Sigma‐Aldrich, Cat. # A1028‐5G) in 1× PBS at pH 4.2, 7.2, or 8.0. The aggregation kinetics were monitored on an EnSpire Multimode Plate Reader (Revvity) at 37 °C with a constant agitation of 1000 rpm. ANS fluorescence readings (Ex: 390 nm, Em: 475 nm) were recorded every 5–10 min for 48–72 h. The lag time of aggregation was determined by fitting a Boltzmann sigmoidal equation, as described in the previous section.

[4] = ThT aggregation kinetics and AFM/TEM imaging of NAC peptides; format: physicochemical; conditions: for aggregation (ThT kinetics): 15 μM ThT, 1× PBS pH 7.2, 37 °C, 1000 rpm, 48–72 h, ThT fluorescence; for aggregate morphology (AFM and TEM): after 48 h of aggregation; for Key observations: fibril formation and stability / Key observations: nucleation: summary table
Procedure: NAC peptides stored at −80 °C were thawed on ice and centrifuged at 12 100 g for 45 s. A reaction mixture (40 μL) was prepared on ice containing 100 μM NAC peptide, either alone or in combination with inhibitor peptides at a 1 : 2 molar ratio, along with 15 μM ThT (Sigma‐Aldrich, Burlington, MA, USA; Cat. # T3516‐5G) in 1× PBS (pH 7.2). This mixture was then dispensed into a clear‐bottom, black 384‐well plate (Revvity, Waltham, MA, USA), and the plate was sealed with a TopSealA‐PLUS (Revvity) to prevent evaporation.
The aggregation kinetics was monitored on an EnSpire Multimode Plate Reader (Revvity) at 37 °C with a constant agitation of 1000 rpm. To prevent condensation in the assay plate, the upper heater temperature in the plate reader was set to 2 °C higher than the lower heater temperature. ThT (Ex: 460–490 nm, Em: 500–550 nm) fluorescence readings were recorded every 5–10 min for 48–72 h. The aggregation lag time was determined by fitting a Boltzmann sigmoidal equation to the fluorescence data in OriginPro 2024 (OriginLab Corporation, Northampton, MA, USA).
NAC peptide aggregates, collected after 48 h of the aggregation assay, were dropped onto a freshly cleaved 10 mm AFM mica disc (Ted Pella, Inc., Redding, CA, USA) and air‐dried for 10 min at room temperature. The mica discs were washed five times with deionized water and then dried for 10–15 min at room temperature. AFM imaging was performed as described, using the […] AIR probe (tip radius: 2 nm, spring constant: 0.4 N/m).
Samples were dropped on glow‐discharged carbon‐coated copper grids and negatively stained with 2% uranyl acetate. Electron microscopy was performed on a Tecnai G2 F20 microscope (FEI Technologies, Hillsboro, OR, USA) with an Eagle 4K CCD camera (FEI Technologies) or a CM100 TWIN Transmission Electron Microscope (Philips, Amsterdam, Netherlands) equipped with a side‐mounted Veleta Camera (Olympus, Tokyo, Japan) and processed in the iTEM software suite (Olympus). After bringing the images to 2048 × 2048 pixels, the pixel size at the specimen level was 1.14 nm. Approximately 20 micrographs of each specimen were recorded and evaluated.

Row | Substance | seeding of αSyn aggregation (effect on lag time) in words [1] | αSyn dimerization (dimer-to-monomer band ratio, Coomassie gel) [1] | Key observations: seeding of αSyn aggregation [1] | insoluble fraction of seeded αSyn (dot blot) ([1]; αSyn aggregated for 72 h with preformed fibrils, n = 3) | solubility: UV–Vis absorption of soluble and insoluble fractions [2] | lag time at acidic pH compared with neutral pH [3] | lag time at basic pH compared with neutral pH [3] | aggregation (ThT kinetics) ([4]; 100 μM peptide, n = 3) | aggregate morphology (AFM and TEM) [4] | Key observations: fibril formation and stability [4] | Key observations: nucleation [4] | aggregation on altering pH [3] | lag time of aggregation compared with NAC35 ([4]; ThT readings 0–10 h, Boltzmann sigmoidal fit, 100 μM peptide, PBS pH 7.2, 37 °C, n = 3)
1 | NAC35: peptide of the entire NAC domain, corresponding to αSyn 61–95 | significantly shortened the lag time | significantly increased αSyn dimerization | effective seeding of αSyn aggregation | increased insoluble fractions | clear increase in absorbance in the insoluble fraction | shortened the lag time | increased it | readily underwent aggregation | elongated fibrils with clumped tangles | forms robust fibrils with enhanced stability | Slow nucleation | – | –
2 | NAC17: truncated NAC peptide corresponding to αSyn 79–95 (QKTVEGAGSIAAATGFV) | – | – | – | – | indistinguishable spectra for soluble and insoluble fractions; also recorded: remained fully soluble | – | – | did not aggregate | no fibrillar or aggregated structures were formed | No nucleation or fibril formation observed. | No nucleation or fibril formation observed. | did not induce | –
3 | NAC16: truncated NAC peptide corresponding to αSyn 63–78 (VTNVGGAVVTGVTAVA) | fail to seed αSyn aggregation | did not promote dimerization or aggregation | lacks seeding ability | – | clear increase in absorbance in the insoluble fraction | longer lag times | longer lag times | readily underwent aggregation | elongated fibrils with clumped tangles | moderately stable fibrils | Rapid nucleation | – | shorter lag time of aggregation than NAC35
4 | NAC12: truncated NAC peptide corresponding to αSyn 71–82 (VTGVTAVAQKTV) | – | – | – | – | indistinguishable spectra for soluble and insoluble fractions; also recorded: remained fully soluble | – | – | did not aggregate | no fibrillar or aggregated structures were formed | No nucleation or fibril formation observed | No nucleation or fibril formation observed | did not induce | –
5 | NAC8: shortest NAC peptide, eight residues, corresponding to αSyn 72–79 (TGVTAVAQ) | – | – | – | – | indistinguishable spectra for soluble and insoluble fractions; also recorded: remained fully soluble | – | – | did not aggregate | no fibrillar or aggregated structures were formed | No nucleation or fibril formation observed | No nucleation or fibril formation observed | did not induce | –
